In US20250222136A1, “GENE EDITING SYSTEM FOR TREATING USHER SYNDROME” (GenKOre, Inc., priority 2022, published 2025) one finds indel efficiency data, which are given here for two molecules.

The test system of data set [1] is Target-2 (SEQ ID NO: 359), human endogenous DNA target site. Nature of the data set: Indel efficiency of CWCas12f1 gene editing system with engineered gRNAs, target sequence 2. It counts as cell-based. How it is done: (§1) To this end, each of the modification site MS3 to MS5 in the canonical sgRNA was further subdivided into three sections (see FIG. 2A). By combining one or more of these modifications, engineered gRNAs (see Table 10 in Example 1.2.1) were produced, and the indel activity for each of them was tested. As target sequences for comparing the indel efficiency, two types of human endogenous DNA target sites comprising the PAM sequence recognized as the cleavage site by the CWCas12f1 protein were identified and used, and the specific nucleotide sequences are provided in Table 12 below.
(§2) Next, to obtain a highly efficient engineered single guide RNA for the CWCas12f1 protein, 5′-[…]uuagGGGAUUA […]gaaaGAAUGAAGGAAUGCAA […]-3′ (SEQ ID NO: 337), which is a mature form (hereinafter referred to as ‘MF’) sgRNA, and engineered gRNAs having partial modifications in the nucleotide sequence of the MF sgRNA were produced (see Table 11), and the indel efficiency of the CWCas12f1 gene editing system caused by them was measured.
(§3) Meanwhile, the comparative experiment of indel efficiency of the engineered Cas12f1 proteins in Examples 1.2.2 and 1.2.3 was performed as follows.
(§4) One day before transfection, HEK293T cells, which had been grown in 24-well plates to 80-90% confluency (based on 100φ dishes), were diluted 1/100 and passaged to prepare a volume of 500 μl. A total of 2 μg of DNA (vector+sgRNA transcription cassette targeting DY10) was used per transfection well. The experiment was repeated twice for each group. A transfection mixture was prepared which contains 1.5 μg of plasmid encoding the wild-type Cas12f1 or the engineered Cas12f1, 0.5 μg of the sgRNA transcription cassette, 200 μl of DMEM (excluding FBS and antibiotics), and 6 μl of FuGENE (Promega) reagent.
(§5) DNA and DMEM containing FuGENE reagent were mixed and vortexed, and then incubated for 15 minutes. 200 μl of the thus prepared transfection mixture was used to treat the cells prepared in a 24-well plate, and incubated at 37° C. […]
(§6) Indel frequency was calculated using MAUND provided at ┌https://github.com/ibs-cge/maund┘.

The subject of data set [2] is Target-1 (SEQ ID NO: 358), human endogenous DNA target site. Nature of the data set: Indel efficiency of CWCas12f1 gene editing system with engineered gRNAs, target sequence 1. It counts as cell-based. How it is done:
as §1, §2, §3, §4, §5, §6

B1: Canonical sgRNA: canonical (wild-type, full length) single guide RNA for Cas12f1, SEQ ID NO: 177 (nucleic acid)
guide: CUUCACUGAUAAAGUGGAGAACCGCUUCACCAAAAGCUGUCCCUUAGGGGAUUAGAACUUGAGUGAAGGUGGGCUGCUUGCAUCAGCCUAAUGUCGAGAAGUGCUUUCUUCGGAAAGUAACCCUCGAAACAAAUUCAUUUUUCCUCUCCAAUUCUGCACAAGAAAGUUGCAGAACCCGAAUAGACGAAUGAAGGAAUGCAACNNNNNNNNNNNNNNNNNNNN
modifications: Canonical sgRNA for Cas12f1; misc_feature 203..222 n is a, c, g or u
As to B1, the indel efficiency entry was “did not cause cleavage of the target strand” in data set [1] (CWCas12f1 protein, Target-2 (SEQ ID NO: 359), gRNAs engineered from canonical sgRNA, FIG. 3B) and “did not cause cleavage of the target strand” in data set [2] (CWCas12f1 protein, Target-1 (SEQ ID NO: 358), gRNAs engineered from canonical sgRNA, FIG. 3A).

B2: MS3-3/MS4-3: MF-based engineered sgRNA, SEQ ID NO: 347 (nucleic acid)
guide: ACCGCUUCACCAAAAGCUGUCCCUUAGGGGAUUAGAACUUGAGUGAAGGUGGGCUGCUUGCAUCAGCCUAAUGUCGAGAAGUGCUUUCUUCGGAAAGUAACCCUCGAAACAAAGAAAGGAAUGCAACNNNNNNNNNNNNNNNNNNNN
modifications: Mature form sgRNA with modification of MS3-3/MS4-3; misc_feature 128..147 n is a, c, g or u
B2: the indel efficiency result is listed as “about 50%” in data set [1] (CWCas12f1, Target-2, MF-based gRNA with U-rich tail (U4AU4) added to the 3′-end (MS2), FIG. 4D); “about 20%” in data set [1] (CWCas12f1, Target-2, gRNAs engineered from mature form (MF) sgRNA, no U-rich tail, FIG. 4C); “about 60%” in data set [2] (CWCas12f1, Target-1, MF-based gRNA with U-rich tail (U4AU4) added to the 3′-end (MS2), FIG. 4B); “about 40%” in data set [2] (CWCas12f1, Target-1, gRNAs engineered from mature form (MF) sgRNA, no U-rich tail, FIG. 4A).
